Measurements published in patent publication US20240400715A1 (VIBRANT PHARMA, published 2024).

Key:
[1] = biological target: T1, human CD3ε/δ (ACRO systems, CDD-H52W1) (human, UniProt P07766 23-126; P04234 22-105); test: serum-stability ELISA, Day 1 vs Day 0
T1 construct: bought recombinant heterodimer; also called human CD3 epsilon/delta; Human CD3ε/CD3δ
Description: (§1) The samples to be tested were centrifuged at 4° C. at 12000 rpm for 30 minutes to remove the precipitate. 200 μl of each sample to be tested (0.5 mg/ml) was collected in a 1.5 ml Eppendorf tube. An equal volume of human serum (GEMINI, H2OYOOK) was added, mixed thoroughly, and the mixture was incubated in a 37° C. constant temperature CO₂ incubator. For a total of 10 days, 40 μl samples was aspirated every day and stored at −20° C.
(§2) Enzyme-linked immunosorbent assay (ELISA) was used to test the bispecific antibodies' binding to human CEA and human CD3 epsilon/delta antigen. The steps are as follows: the antigen human CD3ε/δ (ACRO systems, CDD-H52W1) and the recombinant tumor antigen human CEA (CEACAM-5/CD66e, ACRO systems, CE5-H5226) were diluted to 1 μg/ml with PBS, and then added to the 96-well plate at 100 μl per well. The wells were coated overnight at 4° C. After washing 3 times with 0.05% PBST, 200 μl 5% skimmed milk powder was added to each well and incubated at 37° C. for 2 h. After washing 3 times with 0.05% PBST, 100 μl primary antibody sample (10 μg/ml) was added to each well, and incubated at 37° C. for 2 h. After washing 3 times with 0.05% PBST, 100 μl (1:6000) diluted secondary antibody goat anti-human Fc-HRP (sigma, A2170) was added to each well, incubated at room temperature for 1 h. After washing 8 times with 0.05% PBST, 50 μl TMB color developing solution was added to each well, and incubated at room temperature for 10-15 min. 50 μl 1 mM HCl was added to each well to stop the color development. 450 nm Absorbance (OD) was read.
(§3) The binding of antibodies to antigen was calculated according to the following formula: Binding (%)=[(ODdayn−ODb)/(ODday0−ODb)]×100%. ODdayn: experimental well (the protein was stored in the serum for n days); ODday0: control well (the protein was not stored in the serum); ODb: blank well (no primary antibody added).

[2] = biological target: T1, human CD3ε/δ (ACRO systems, CDD-H52W1); test: serum-stability ELISA, Day 2 vs Day 0
Description: as §1, §2, §3

[3] = biological target: T1, human CD3ε/δ (ACRO systems, CDD-H52W1); test: serum-stability ELISA, Day 5 vs Day 0
Description: as §1, §2, §3

[4] = biological target: T1, human CD3ε/δ (ACRO systems, CDD-H52W1); test: serum-stability ELISA, Day 6 vs Day 0
Description: as §1, §2, §3

[5] = biological target: T1, human CD3ε/δ (ACRO systems, CDD-H52W1); test: serum-stability ELISA, Day 7 vs Day 0
Description: as §1, §2, §3

[6] = biological target: T1, human CD3ε/δ (ACRO systems, CDD-H52W1); test: serum-stability ELISA, Day 9 vs Day 0
Description: as §1, §2, §3

[7] = biological target: T1, human CD3ε/δ (ACRO systems, CDD-H52W1); test: serum-stability ELISA, Day 10 vs Day 0
Description: as §1, §2, §3

[8] = biological target: T1, human CD3ε/δ (ACRO systems, CDD-H52W1); test: serum-stability ELISA, Day 0 (reference)

B1: 208 (Fab (Heavy)-Knob+Fab (Light)-Hole-CEA) (bispecific antibody, human IgG4 S228P, kappa, F234A L235A)
heavy: EVKLLESGGGLVQPKGSLKLSCAASGFTFNTYAMNWVRQAPGKGLEWVARIRSKYNNYATYYADSVKDRFTISRDDSQSILYLQMNNLKTEDTAMYYCVRHGNFGNSYVSWFAYWGQGTLVTVSSASTKGPSVFPLAPCSRSTSESTAALGCLVKDYFPEPVTVSWNSGALTSGVHTFPAVLQSSGLYSLSSVVTVPSSSLGTKTYTCNVDHKPSNTKVDKRVESKYGPPCPPCPAPEAAGGPSVFLFPPKPKDTLMISRTPEVTCVVVDVSQEDPEVQFNWYVDGVEVHNAKTKPREEQFNSTYRVVSVLTVLHQDWLNGKEYKCKVSNKGLPSSIEKTISKAKGQPREPQVYTLPPCQEEMTKNQVSLWCLVKGFYPSDIAVEWESNGQPENNYKTTPPVLDSDGSFFLYSRLTVDKSRWQEGNVFSCSVMHEALHNHYTQKSLSLSL
light: QAVVTQESALTTSPGETVTLTCRSSTGAVTTSNYANWVQEKPDHLFTGLIGGTNKRAPGVPARFSGSLIGDKAALTITGAQTEDEAIYFCALWYSNLWVFGGGTKVEIKRTVAAPSVFIFPPSDEQLKSGTASVVCLLNNFYPREAKVQWKVDNALQSGNSQESVTEQDSKDSTYSLSSTLTLSKADYEKHKVYACEVTHQGLSSPVTKSFNRGECESKYGPPCPPCPAPEAAGGPSVFLFPPKPKDTLMISRTPEVTCVVVDVSQEDPEVQFNWYVDGVEVHNAKTKPREEQFNSTYRVVSVLTVLHQDWLNGKEYKCKVSNKGLPSSIEKTISKAKGQPREPQVCTLPPSQEEMTKNQVSLSCAVKGFYPSDIAVEWESNGQPENNYKTTPPVLDSDGSFFLVSRLTVDKSRWQEGNVFSCSVMHEALHNRFTQKSLSLSLGGGGSGGGGSEVQLVESGGGFVQAGESLTLSCTSSTLTFTPYRMAWYRQAPGKQRDLVADISSGDGRTTNYADFAKGRFTISRDNIKNTVFLRMTNLKPEDTAVYYCNTFVSFVGIARSWGQGTQVTVSS
notes: two-chain format: VL-CL fused to hole Fc and VHH
- Binding % [1]: 95.7%
- Binding % [2]: 96.1%
- Binding % [3]: 100%
- Binding % [4]: 97.4%
- Binding % [5]: 95.9%
- Binding % [6]: 98.8%
- Binding % [7]: 95.7%
- Binding % [8]: 100%

B2: 209 (Fab (Light)-Knob-CEA+Fab (Heavy)-Hole) (bispecific antibody, human IgG4 S228P, kappa, F234A L235A)
light: QAVVTQESALTTSPGETVTLTCRSSTGAVTTSNYANWVQEKPDHLFTGLIGGTNKRAPGVPARFSGSLIGDKAALTITGAQTEDEAIYFCALWYSNLWVFGGGTKVEIKRTVAAPSVFIFPPSDEQLKSGTASVVCLLNNFYPREAKVQWKVDNALQSGNSQESVTEQDSKDSTYSLSSTLTLSKADYEKHKVYACEVTHQGLSSPVTKSFNRGECESKYGPPCPPCPAPEAAGGPSVFLFPPKPKDTLMISRTPEVTCVVVDVSQEDPEVQFNWYVDGVEVHNAKTKPREEQFNSTYRVVSVLTVLHQDWLNGKEYKCKVSNKGLPSSIEKTISKAKGQPREPQVYTLPPCQEEMTKNQVSLWCLVKGFYPSDIAVEWESNGQPENNYKTTPPVLDSDGSFFLYSRLTVDKSRWQEGNVFSCSVMHEALHNHYTQKSLSLSLGGGGSGGGGSEVQLVESGGGFVQAGESLTLSCTSSTLTFTPYRMAWYRQAPGKQRDLVADISSGDGRTTNYADFAKGRFTISRDNIKNTVFLRMTNLKPEDTAVYYCNTFVSFVGIARSWGQGTQVTVSS
heavy: EVKLLESGGGLVQPKGSLKLSCAASGFTFNTYAMNWVRQAPGKGLEWVARIRSKYNNYATYYADSVKDRFTISRDDSQSILYLQMNNLKTEDTAMYYCVRHGNFGNSYVSWFAYWGQGTLVTVSSASTKGPSVFPLAPCSRSTSESTAALGCLVKDYFPEPVTVSWNSGALTSGVHTFPAVLQSSGLYSLSSVVTVPSSSLGTKTYTCNVDHKPSNTKVDKRVESKYGPPCPPCPAPEAAGGPSVFLFPPKPKDTLMISRTPEVTCVVVDVSQEDPEVQFNWYVDGVEVHNAKTKPREEQFNSTYRVVSVLTVLHQDWLNGKEYKCKVSNKGLPSSIEKTISKAKGQPREPQVCTLPPSQEEMTKNQVSLSCAVKGFYPSDIAVEWESNGQPENNYKTTPPVLDSDGSFFLVSRLTVDKSRWQEGNVFSCSVMHEALHNRFTQKSLSLSL
notes: two-chain format: VL-CL fused to knob Fc and VHH
- Binding % [1]: 102%
- Binding % [2]: 103%
- Binding % [3]: 108%
- Binding % [4]: 105%
- Binding % [5]: 109%
- Binding % [6]: 108%
- Binding % [7]: 107%
- Binding % [8]: 100%

B3: 205 (CEA-Fab-Knob-+Hole) (bispecific antibody, human IgG4 S228P, kappa, F234A L235A)
heavy: EVQLVESGGGFVQAGESLTLSCTSSTLTFTPYRMAWYRQAPGKQRDLVADISSGDGRTTNYADFAKGRFTISRDNIKNTVFLRMTNLKPEDTAVYYCNTFVSFVGIARSWGQGTQVTVSSGGGGSGGGGSEVKLLESGGGLVQPKGSLKLSCAASGFTFNTYAMNWVRQAPGKGLEWVARIRSKYNNYATYYADSVKDRFTISRDDSQSILYLQMNNLKTEDTAMYYCVRHGNFGNSYVSWFAYWGQGTLVTVSSASTKGPSVFPLAPCSRSTSESTAALGCLVKDYFPEPVTVSWNSGALTSGVHTFPAVLQSSGLYSLSSVVTVPSSSLGTKTYTCNVDHKPSNTKVDKRVESKYGPPCPPCPAPEAAGGPSVFLFPPKPKDTLMISRTPEVTCVVVDVSQEDPEVQFNWYVDGVEVHNAKTKPREEQFNSTYRVVSVLTVLHQDWLNGKEYKCKVSNKGLPSSIEKTISKAKGQPREPQVYTLPPCQEEMTKNQVSLWCLVKGFYPSDIAVEWESNGQPENNYKTTPPVLDSDGSFFLYSRLTVDKSRWQEGNVFSCSVMHEALHNHYTQKSLSLSL
chain: ESKYGPPCPPCPAPEAAGGPSVFLFPPKPKDTLMISRTPEVTCVVVDVSQEDPEVQFNWYVDGVEVHNAKTKPREEQFNSTYRVVSVLTVLHQDWLNGKEYKCKVSNKGLPSSIEKTISKAKGQPREPQVCTLPPSQEEMTKNQVSLSCAVKGFYPSDIAVEWESNGQPENNYKTTPPVLDSDGSFFLVSRLTVDKSRWQEGNVFSCSVMHEALHNRFTQKSLSLSL
light: QAVVTQESALTTSPGETVTLTCRSSTGAVTTSNYANWVQEKPDHLFTGLIGGTNKRAPGVPARFSGSLIGDKAALTITGAQTEDEAIYFCALWYSNLWVFGGGTKVEIKRTVAAPSVFIFPPSDEQLKSGTASVVCLLNNFYPREAKVQWKVDNALQSGNSQESVTEQDSKDSTYSLSSTLTLSKADYEKHKVYACEVTHQGLSSPVTKSFNRGEC
notes: VHH fused before VH of the heavy chain
- Binding % [1]: 96.5%
- Binding % [2]: 99.3%
- Binding % [3]: 117%
- Binding % [4]: 100%
- Binding % [5]: 105%
- Binding % [6]: 105%
- Binding % [7]: 105%
- Binding % [8]: 100%

B4: 206 (Knob+CEA-Fab-Hole) (bispecific antibody, human IgG4 S228P, kappa, F234A L235A)
chain: ESKYGPPCPPCPAPEAAGGPSVFLFPPKPKDTLMISRTPEVTCVVVDVSQEDPEVQFNWYVDGVEVHNAKTKPREEQFNSTYRVVSVLTVLHQDWLNGKEYKCKVSNKGLPSSIEKTISKAKGQPREPQVYTLPPCQEEMTKNQVSLWCLVKGFYPSDIAVEWESNGQPENNYKTTPPVLDSDGSFFLYSRLTVDKSRWQEGNVFSCSVMHEALHNHYTQKSLSLSL
heavy: EVQLVESGGGFVQAGESLTLSCTSSTLTFTPYRMAWYRQAPGKQRDLVADISSGDGRTTNYADFAKGRFTISRDNIKNTVFLRMTNLKPEDTAVYYCNTFVSFVGIARSWGQGTQVTVSSGGGGSGGGGSEVKLLESGGGLVQPKGSLKLSCAASGFTFNTYAMNWVRQAPGKGLEWVARIRSKYNNYATYYADSVKDRFTISRDDSQSILYLQMNNLKTEDTAMYYCVRHGNFGNSYVSWFAYWGQGTLVTVSSASTKGPSVFPLAPCSRSTSESTAALGCLVKDYFPEPVTVSWNSGALTSGVHTFPAVLQSSGLYSLSSVVTVPSSSLGTKTYTCNVDHKPSNTKVDKRVESKYGPPCPPCPAPEAAGGPSVFLFPPKPKDTLMISRTPEVTCVVVDVSQEDPEVQFNWYVDGVEVHNAKTKPREEQFNSTYRVVSVLTVLHQDWLNGKEYKCKVSNKGLPSSIEKTISKAKGQPREPQVCTLPPSQEEMTKNQVSLSCAVKGFYPSDIAVEWESNGQPENNYKTTPPVLDSDGSFFLVSRLTVDKSRWQEGNVFSCSVMHEALHNRFTQKSLSLSL
light: QAVVTQESALTTSPGETVTLTCRSSTGAVTTSNYANWVQEKPDHLFTGLIGGTNKRAPGVPARFSGSLIGDKAALTITGAQTEDEAIYFCALWYSNLWVFGGGTKVEIKRTVAAPSVFIFPPSDEQLKSGTASVVCLLNNFYPREAKVQWKVDNALQSGNSQESVTEQDSKDSTYSLSSTLTLSKADYEKHKVYACEVTHQGLSSPVTKSFNRGEC
notes: as for B3
- Binding % [1]: 95.1%
- Binding % [2]: 95.1%
- Binding % [3]: 102%
- Binding % [4]: 99.3%
- Binding % [5]: 100%
- Binding % [6]: 95.6%
- Binding % [7]: 91.6%
- Binding % [8]: 100%
